The values below come from article PMC7049099 (Cell reports, 2020).

The test concerns the target vesicular stomatitis virus (VSV) large (L) protein (vesicular stomatitis virus (VSV) …, UniProt P03523 1-2109). In words: cryo-EM structure.

Chain of vesicular stomatitis virus (VSV) large (L) protein (P03523 whole entry): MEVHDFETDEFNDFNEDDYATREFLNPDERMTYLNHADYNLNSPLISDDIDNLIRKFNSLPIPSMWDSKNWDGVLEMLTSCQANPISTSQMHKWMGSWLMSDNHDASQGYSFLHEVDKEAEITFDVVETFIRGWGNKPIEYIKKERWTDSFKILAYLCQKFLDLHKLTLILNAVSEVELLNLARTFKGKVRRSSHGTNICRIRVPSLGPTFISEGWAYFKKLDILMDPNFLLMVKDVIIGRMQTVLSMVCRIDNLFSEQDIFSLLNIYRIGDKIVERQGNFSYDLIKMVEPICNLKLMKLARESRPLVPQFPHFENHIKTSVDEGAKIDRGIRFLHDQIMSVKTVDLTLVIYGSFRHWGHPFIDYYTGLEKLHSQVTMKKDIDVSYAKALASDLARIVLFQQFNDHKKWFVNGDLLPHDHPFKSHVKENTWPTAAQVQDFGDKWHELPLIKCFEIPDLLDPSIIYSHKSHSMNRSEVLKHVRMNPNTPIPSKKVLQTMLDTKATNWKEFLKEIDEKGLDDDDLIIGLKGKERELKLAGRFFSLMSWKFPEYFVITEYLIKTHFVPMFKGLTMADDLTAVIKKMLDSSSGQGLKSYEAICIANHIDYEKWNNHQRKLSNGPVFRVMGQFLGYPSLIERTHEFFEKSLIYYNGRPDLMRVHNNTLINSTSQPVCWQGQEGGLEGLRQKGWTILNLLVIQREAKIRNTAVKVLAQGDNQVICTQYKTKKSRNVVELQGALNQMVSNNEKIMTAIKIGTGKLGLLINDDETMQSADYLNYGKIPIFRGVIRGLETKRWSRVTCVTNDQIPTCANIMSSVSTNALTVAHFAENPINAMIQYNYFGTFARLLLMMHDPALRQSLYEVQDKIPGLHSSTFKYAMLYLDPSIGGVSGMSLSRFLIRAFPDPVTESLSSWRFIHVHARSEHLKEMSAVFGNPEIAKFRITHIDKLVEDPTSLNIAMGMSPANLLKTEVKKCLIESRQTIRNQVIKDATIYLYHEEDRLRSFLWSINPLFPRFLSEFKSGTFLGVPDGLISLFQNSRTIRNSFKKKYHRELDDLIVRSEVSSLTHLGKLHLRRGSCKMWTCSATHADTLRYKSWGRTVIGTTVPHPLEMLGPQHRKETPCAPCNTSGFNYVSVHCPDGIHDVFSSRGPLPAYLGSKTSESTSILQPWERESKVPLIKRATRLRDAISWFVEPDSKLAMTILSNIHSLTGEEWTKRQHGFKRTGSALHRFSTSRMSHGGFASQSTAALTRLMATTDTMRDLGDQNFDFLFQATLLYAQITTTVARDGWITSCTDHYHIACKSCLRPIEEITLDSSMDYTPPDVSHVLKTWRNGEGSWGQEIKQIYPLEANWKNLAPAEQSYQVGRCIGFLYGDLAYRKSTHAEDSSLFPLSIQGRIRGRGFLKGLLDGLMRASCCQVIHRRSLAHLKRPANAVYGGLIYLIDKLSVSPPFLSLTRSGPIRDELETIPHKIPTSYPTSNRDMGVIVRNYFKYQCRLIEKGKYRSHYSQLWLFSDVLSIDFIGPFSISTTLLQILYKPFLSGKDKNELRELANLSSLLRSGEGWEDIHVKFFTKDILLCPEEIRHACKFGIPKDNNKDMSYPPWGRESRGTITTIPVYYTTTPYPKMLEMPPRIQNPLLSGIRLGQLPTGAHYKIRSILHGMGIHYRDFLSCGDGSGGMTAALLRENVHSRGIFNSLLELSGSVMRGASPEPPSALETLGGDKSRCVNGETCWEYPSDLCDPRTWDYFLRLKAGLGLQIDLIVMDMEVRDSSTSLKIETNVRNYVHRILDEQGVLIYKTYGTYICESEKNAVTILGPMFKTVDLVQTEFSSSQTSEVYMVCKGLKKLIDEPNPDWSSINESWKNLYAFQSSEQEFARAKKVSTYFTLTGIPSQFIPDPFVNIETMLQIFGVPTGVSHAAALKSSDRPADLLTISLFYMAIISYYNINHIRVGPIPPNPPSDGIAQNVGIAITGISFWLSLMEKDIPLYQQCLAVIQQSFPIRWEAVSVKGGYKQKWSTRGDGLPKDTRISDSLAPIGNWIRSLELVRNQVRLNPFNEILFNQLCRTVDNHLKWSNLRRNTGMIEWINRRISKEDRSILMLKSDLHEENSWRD

B1: VSV phosphoprotein (P) fragment, residues 35-106 (domain or fragment)
chain: SNYELFQEDGVEEHTKPSYFQAADDSDTESEPEIEDNQGLYAQDPEAEQVEGFIQGPLDDYADEEVDVVFTS
Take B1: the binding result is listed as “binds”.
